Numbered stars: 1 amine (or outer) side, 2 acyl side, 3 side chain; on linkers, the order of the positions; unused ones are H or OH. Bridge positions count the residues as written; N and C are the ends. Side chains are listed from the residue outwards. Ends that are not written are not given here. * marks the point of attachment. C20 diacid = O=C(O)CCCCCCCCCCCCCCCCCCC(=O)*; γGlu = O=C(O)[C@H](CCC(=O)[*:2])N[*:1]
T1: human amylin receptor (amylin 3(a) receptor: human calcitonin receptor plus RAMP-3) (human, UniProt P30988 25-474; O60896 24-148)
T1 sequence (looked up) 1: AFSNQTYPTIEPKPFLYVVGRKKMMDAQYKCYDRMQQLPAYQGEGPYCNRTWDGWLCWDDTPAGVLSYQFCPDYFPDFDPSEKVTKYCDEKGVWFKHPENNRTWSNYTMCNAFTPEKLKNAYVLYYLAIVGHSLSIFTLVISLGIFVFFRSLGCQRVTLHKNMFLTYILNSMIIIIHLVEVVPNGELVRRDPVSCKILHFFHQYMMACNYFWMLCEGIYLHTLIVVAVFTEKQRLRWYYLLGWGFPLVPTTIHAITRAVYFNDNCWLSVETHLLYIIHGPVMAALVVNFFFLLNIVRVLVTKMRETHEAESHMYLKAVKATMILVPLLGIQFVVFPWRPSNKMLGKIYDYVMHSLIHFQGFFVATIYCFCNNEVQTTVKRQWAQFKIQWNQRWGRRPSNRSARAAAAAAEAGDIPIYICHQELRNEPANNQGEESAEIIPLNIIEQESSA
T1 sequence (looked up) 2: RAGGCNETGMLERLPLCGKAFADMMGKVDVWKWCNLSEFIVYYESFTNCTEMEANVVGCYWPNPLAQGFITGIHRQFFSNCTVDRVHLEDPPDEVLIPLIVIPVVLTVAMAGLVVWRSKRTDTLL

T2: human calcitonin receptor (human, UniProt P30988 25-474)
T2 sequence (looked up): T1 sequence (looked up) 1

B1: N^ε1-[(4S)-4-carboxy-4-(19-carboxynonadecanoylamino)butanoyl]-[Arg17,Pro21,Pro27,Glu35]-h-amylin (peptide)
peptide: K([γGlu-C20 diacid])CNTATCATQRLANFLRHSSPNFGAIPSSTNVGSETY-NH2
modifications: disulfide 2-7; N-terminus assumed
SMILES: CC[C@H](C)[C@H](NC(=O)[C@H](C)NC(=O)CNC(=O)[C@H](Cc1ccccc1)NC(=O)[C@H](CC(N)=O)NC(=O)[C@@H]1CCCN1C(=O)[C@H](CO)NC(=O)[C@H](CO)NC(=O)[C@H](Cc1c[nH]cn1)NC(=O)[C@H](CCCNC(=N)N)NC(=O)[C@H](CC(C)C)NC(=O)[C@H](Cc1ccccc1)NC(=O)[C@H](CC(N)=O)NC(=O)[C@H](C)NC(=O)[C@H](CC(C)C)NC(=O)[C@H](CCCNC(=N)N)NC(=O)[C@H](CCC(N)=O)NC(=O)[C@@H](NC(=O)[C@H](C)NC(=O)[C@@H]1CSSC[C@H](NC(=O)[C@@H](N)CCCCNC(=O)CC[C@H](NC(=O)CCCCCCCCCCCCCCCCCCC(=O)O)C(=O)O)C(=O)N[C@@H](CC(N)=O)C(=O)N[C@@H]([C@@H](C)O)C(=O)N[C@@H](C)C(=O)N[C@@H]([C@@H](C)O)C(=O)N1)[C@@H](C)O)C(=O)N1CCC[C@H]1C(=O)N[C@@H](CO)C(=O)N[C@@H](CO)C(=O)N[C@H](C(=O)N[C@@H](CC(N)=O)C(=O)N[C@H](C(=O)NCC(=O)N[C@@H](CO)C(=O)N[C@@H](CCC(=O)O)C(=O)N[C@H](C(=O)N[C@@H](Cc1ccc(O)cc1)C(N)=O)[C@@H](C)O)C(C)C)[C@@H](C)O
notes: also called compound 27
B2: N^ε1-[(4S)-4-carboxy-4-(19-carboxynonadecanoylamino)butanoyl]-[Asp14,Arg17,Pro21,Pro27,Pro34,Glu35]-h-amylin (peptide)
peptide: K([γGlu-C20 diacid])CNTATCATQRLADFLRHSSPNFGAIPSSTNVGPETY-NH2
modifications: disulfide 2-7; N-terminus assumed
SMILES: CC[C@H](C)[C@H](NC(=O)[C@H](C)NC(=O)CNC(=O)[C@H](Cc1ccccc1)NC(=O)[C@H](CC(N)=O)NC(=O)[C@@H]1CCCN1C(=O)[C@H](CO)NC(=O)[C@H](CO)NC(=O)[C@H](Cc1c[nH]cn1)NC(=O)[C@H](CCCNC(=N)N)NC(=O)[C@H](CC(C)C)NC(=O)[C@H](Cc1ccccc1)NC(=O)[C@H](CC(=O)O)NC(=O)[C@H](C)NC(=O)[C@H](CC(C)C)NC(=O)[C@H](CCCNC(=N)N)NC(=O)[C@H](CCC(N)=O)NC(=O)[C@@H](NC(=O)[C@H](C)NC(=O)[C@@H]1CSSC[C@H](NC(=O)[C@@H](N)CCCCNC(=O)CC[C@H](NC(=O)CCCCCCCCCCCCCCCCCCC(=O)O)C(=O)O)C(=O)N[C@@H](CC(N)=O)C(=O)N[C@@H]([C@@H](C)O)C(=O)N[C@@H](C)C(=O)N[C@@H]([C@@H](C)O)C(=O)N1)[C@@H](C)O)C(=O)N1CCC[C@H]1C(=O)N[C@@H](CO)C(=O)N[C@@H](CO)C(=O)N[C@H](C(=O)N[C@@H](CC(N)=O)C(=O)N[C@H](C(=O)NCC(=O)N1CCC[C@H]1C(=O)N[C@@H](CCC(=O)O)C(=O)N[C@H](C(=O)N[C@@H](Cc1ccc(O)cc1)C(N)=O)[C@@H](C)O)C(C)C)[C@@H](C)O
B3: N^ε1-[(4S)-4-carboxy-4-(19-carboxynonadecanoylamino)butanoyl]-[Glu14,Arg17,Pro21,Pro27,His34,Glu35]-h-amylin (peptide)
peptide: K([γGlu-C20 diacid])CNTATCATQRLAEFLRHSSPNFGAIPSSTNVGHETY-NH2
modifications: disulfide 2-7; N-terminus assumed
SMILES: CC[C@H](C)[C@H](NC(=O)[C@H](C)NC(=O)CNC(=O)[C@H](Cc1ccccc1)NC(=O)[C@H](CC(N)=O)NC(=O)[C@@H]1CCCN1C(=O)[C@H](CO)NC(=O)[C@H](CO)NC(=O)[C@H](Cc1c[nH]cn1)NC(=O)[C@H](CCCNC(=N)N)NC(=O)[C@H](CC(C)C)NC(=O)[C@H](Cc1ccccc1)NC(=O)[C@H](CCC(=O)O)NC(=O)[C@H](C)NC(=O)[C@H](CC(C)C)NC(=O)[C@H](CCCNC(=N)N)NC(=O)[C@H](CCC(N)=O)NC(=O)[C@@H](NC(=O)[C@H](C)NC(=O)[C@@H]1CSSC[C@H](NC(=O)[C@@H](N)CCCCNC(=O)CC[C@H](NC(=O)CCCCCCCCCCCCCCCCCCC(=O)O)C(=O)O)C(=O)N[C@@H](CC(N)=O)C(=O)N[C@@H]([C@@H](C)O)C(=O)N[C@@H](C)C(=O)N[C@@H]([C@@H](C)O)C(=O)N1)[C@@H](C)O)C(=O)N1CCC[C@H]1C(=O)N[C@@H](CO)C(=O)N[C@@H](CO)C(=O)N[C@H](C(=O)N[C@@H](CC(N)=O)C(=O)N[C@H](C(=O)NCC(=O)N[C@@H](Cc1c[nH]cn1)C(=O)N[C@@H](CCC(=O)O)C(=O)N[C@H](C(=O)N[C@@H](Cc1ccc(O)cc1)C(N)=O)[C@@H](C)O)C(C)C)[C@@H](C)O
notes: also called compound 107
B4: N^ε1-[(4S)-4-carboxy-4-(19-carboxynonadecanoylamino)butanoyl]-[Arg17,Pro21,Pro27,His35]-h-amylin (peptide)
peptide: K([γGlu-C20 diacid])CNTATCATQRLANFLRHSSPNFGAIPSSTNVGSHTY-NH2
modifications: disulfide 2-7; N-terminus assumed
SMILES: CC[C@H](C)[C@H](NC(=O)[C@H](C)NC(=O)CNC(=O)[C@H](Cc1ccccc1)NC(=O)[C@H](CC(N)=O)NC(=O)[C@@H]1CCCN1C(=O)[C@H](CO)NC(=O)[C@H](CO)NC(=O)[C@H](Cc1c[nH]cn1)NC(=O)[C@H](CCCNC(=N)N)NC(=O)[C@H](CC(C)C)NC(=O)[C@H](Cc1ccccc1)NC(=O)[C@H](CC(N)=O)NC(=O)[C@H](C)NC(=O)[C@H](CC(C)C)NC(=O)[C@H](CCCNC(=N)N)NC(=O)[C@H](CCC(N)=O)NC(=O)[C@@H](NC(=O)[C@H](C)NC(=O)[C@@H]1CSSC[C@H](NC(=O)[C@@H](N)CCCCNC(=O)CC[C@H](NC(=O)CCCCCCCCCCCCCCCCCCC(=O)O)C(=O)O)C(=O)N[C@@H](CC(N)=O)C(=O)N[C@@H]([C@@H](C)O)C(=O)N[C@@H](C)C(=O)N[C@@H]([C@@H](C)O)C(=O)N1)[C@@H](C)O)C(=O)N1CCC[C@H]1C(=O)N[C@@H](CO)C(=O)N[C@@H](CO)C(=O)N[C@H](C(=O)N[C@@H](CC(N)=O)C(=O)N[C@H](C(=O)NCC(=O)N[C@@H](CO)C(=O)N[C@@H](Cc1c[nH]cn1)C(=O)N[C@H](C(=O)N[C@@H](Cc1ccc(O)cc1)C(N)=O)[C@@H](C)O)C(C)C)[C@@H](C)O
notes: also called compound 60
B5: N^ε1-[(4S)-4-carboxy-4-(19-carboxynonadecanoylamino)butanoyl]-[Glu14,Arg17,Pro21,Pro27,Arg34,Glu35]-h-amylin (peptide)
peptide: K([γGlu-C20 diacid])CNTATCATQRLAEFLRHSSPNFGAIPSSTNVGRETY-NH2
modifications: disulfide 2-7; N-terminus assumed
SMILES: CC[C@H](C)[C@H](NC(=O)[C@H](C)NC(=O)CNC(=O)[C@H](Cc1ccccc1)NC(=O)[C@H](CC(N)=O)NC(=O)[C@@H]1CCCN1C(=O)[C@H](CO)NC(=O)[C@H](CO)NC(=O)[C@H](Cc1c[nH]cn1)NC(=O)[C@H](CCCNC(=N)N)NC(=O)[C@H](CC(C)C)NC(=O)[C@H](Cc1ccccc1)NC(=O)[C@H](CCC(=O)O)NC(=O)[C@H](C)NC(=O)[C@H](CC(C)C)NC(=O)[C@H](CCCNC(=N)N)NC(=O)[C@H](CCC(N)=O)NC(=O)[C@@H](NC(=O)[C@H](C)NC(=O)[C@@H]1CSSC[C@H](NC(=O)[C@@H](N)CCCCNC(=O)CC[C@H](NC(=O)CCCCCCCCCCCCCCCCCCC(=O)O)C(=O)O)C(=O)N[C@@H](CC(N)=O)C(=O)N[C@@H]([C@@H](C)O)C(=O)N[C@@H](C)C(=O)N[C@@H]([C@@H](C)O)C(=O)N1)[C@@H](C)O)C(=O)N1CCC[C@H]1C(=O)N[C@@H](CO)C(=O)N[C@@H](CO)C(=O)N[C@H](C(=O)N[C@@H](CC(N)=O)C(=O)N[C@H](C(=O)NCC(=O)N[C@@H](CCCNC(=N)N)C(=O)N[C@@H](CCC(=O)O)C(=O)N[C@H](C(=O)N[C@@H](Cc1ccc(O)cc1)C(N)=O)[C@@H](C)O)C(C)C)[C@@H](C)O

Target: T1, human amylin receptor (amylin 3(a) …)
Assay: cell-based or functional assay

Row | Ratio hCT/hAmylin funct. | hAmylin-R funct. EC50 (pM) | Binder
1 | 22.6 | 133 pM | B1
2 | 3.9 | 288 pM | B2
3 | 6.3 | 405 pM | B3
4 | 15.3 | 351 pM | B4
5 | 6.5 | 421 pM | B5

Target: T2, human calcitonin receptor
Assay: cell-based or functional assay

Row | hCTR funct. EC50 (pM) | Binder
6 | 3000 pM | B1
7 | 1120 pM | B2
8 | 2540 pM | B3
9 | 5360 pM | B4
10 | 2740 pM | B5

Target: T1, human amylin receptor (amylin 3(a) …)
Assay: SPA competition binding, displacement of 125I-rat amylin, membranes of BHK amylin 3(a)/CRE-luc cells
Method: The binding assay was performed using scintillation proximity assay (SPA) beads (RPNQ0001) from PerkinElmer and cell membranes from the Amylin 3(a)/CRE-luc cells (as described in Assay (II)) were used. Membranes were prepared in the following way; the cells were rinsed with PBS and incubated with Versene for approximately 5 min before harvesting. The cells were flushed with PBS and the cell-suspension was centrifuged for 5 min at 1000 rpm. Cells were homogenized (ultrathurrax) in a buffer containing 20 mM Na-HEPES and 10 mM EDTA (pH 7.4) and centrifuged at 20.000 rpm for 15 min. The resulting pellet was resuspended, homogenized and centrifuged (20.000 rpm, 15 min) in a buffer containing 20 mM Na-HEPES and 0.1 mM EDTA (pH 7.4, buffer 2). The resulting pellet was resuspended in buffer 2 and protein concentration was measured (BCA protein Assay, Pierce). The homogenate was kept cold during the whole procedure. The membranes were kept at −80° C. until use. The assay was performed in a 384 well Optiplate (PerkinElmer) in a total volume of 40 ul. Membranes were mixed with SPA beads. Final concentration of membranes 35 ng/μL final and SPA beads was 0.05 mg/well. Test-compounds were dissolved in DMSO and further diluted in assay buffer (50 mM Hepes, pH 7.4, 1 mM CaCl2, 5 mM MgCl₂, 0.1% OA and 0.02% Tween20). […] The final mixture was incubated with shaking at 400 rpm for 120 min at 25° C. prior to centrifugation (1500 rpm, 10 min). Samples were analyzed on TopCounter™ (Packard). The IC₅₀ was calculated using (one site binding competition analysis) GraphPad Prism5 as a measure of receptor affinity.

Row | IC50 | Binder
11 | 837 pM | B1
12 | 196 pM | B2
13 | 387 pM | B3
14 | 695 pM | B4
15 | 232 pM | B5

Reference: patent US20140087995A1 (published 2014)
